Source: FireProtDB (doi:10.1093/protein/12.7.581)
Where “and” joins values, the source holds several entries; their conditions need not be identical. Equal entries are not always repeated.

B1: Alpha-lactalbumin, P00711 (parent)
chain: MMSFVSLLLVGILFHATQAEQLTKCEVFRELKDLKGYGGVSLPEWVCTTFHTSGYDTQAIVQNNDSTEYGLFQINNKIWCKDDQNPHSSNICNISCDKFLDDDLTDDIMCVKKILDKVGINYWLAHKALCSEKLDQWLCEKL

Variants of: B1
Conditions: Bos taurus; pH 7.4; Thermal; CD; Tris-HCl 20 mM; CaCl2 1 mM; reversible: yes(>95%); structure 1HFZ; whole UniProt chain shown

| Variant | Tm | change of melting temperature, mutant - wild type (higher = more stable) [°C] | unfolding enthalpy (van 't Hoff) [kcal/mol] | ddG of mutation (higher = less stable) [kcal/mol] |
| --- | --- | --- | --- | --- |
| MMSFVSLLLVGILFHATQAEQLTKCEVFRELKDLKGYGGVSLPEWVCTTFYTSGYDTQAIVQNNDSTEYGLFQINNKIWCKDDQNPHSSNICNISCDKFLDDDLTDDIMCVKKILDKVGINYWLAHKALCSEKLDQWLCEKL | 56.5 °C | 0.3 | 73.6 | – |
| MMSFVSLLLVGILFHATQAEQLTKCEVFRELKDLKGYGGVSLPEWVCTTFHTSGYDTQAIAQNNDSTEYGLFQINNKIWCKDDQNPHSSNICNISCDKFLDDDLTDDIMCVKKILDKVGINYWLAHKALCSEKLDQWLCEKL | 51.7 °C and 56.2 °C | -4.5 | 64.3 | 0.93 |
| MMSFVSLLLVGILFHATQAEQLTKCEVFRELKDLKGYGGVSLPEWVCTTFHTSGYDTQAINQNNDSTEYGLFQINNKIWCKDDQNPHSSNICNISCDKFLDDDLTDDIMCVKKILDKVGINYWLAHKALCSEKLDQWLCEKL | 55.1 °C | -1.1 | 67.2 | – |
| MMSFVSLLLVGILFHATQAEQLTKCEVFRELKDLKGYGGVSLPEWVCTTFHTSGYDTQAIVQNNDSTEYGLFAINNKIWCKDDQNPHSSNICNISCDKFLDDDLTDDIMCVKKILDKVGINYWLAHKALCSEKLDQWLCEKL | 54.3 °C and 56.2 °C | -1.9 | 67.6 | 0.41 |
| MMSFVSLLLVGILFHATQAEQLTKCEVFRELKDLKGYGGVSLPEWVCTTFHTSGYDTQAIVQNNDSTEYGLFQINNKWWCKDDQNPHSSNICNISCDKFLDDDLTDDIMCVKKILDKVGINYWLAHKALCSEKLDQWLCEKL | 51.7 °C and 56.2 °C | -4.5 | 65 | 0.93 |
| MMSFVSLLLVGILFHATQAEQLTKCEVFRELKDLKGYGGVSLPEWVCTTFHTSGYDTQAIVQNNDSTEYGLFQINNKIWCKDDQNPHSSNICNISCDKFLDDDLTDDIMCVKKILDKVGINPWLAHKALCSEKLDQWLCEKL | 55.1 °C and 56.2 °C | -1.1 | 62.1 | 0.22 |
| MMSFVSLLLVGILFHATQAEQLTKCEVFRELKDLKGYGGVSLPEWVCTTFHTSGYDTQAIVQNNDSTEYGLFQINNKIWCKDDQNPHSSNICNISCDKFLDDDLTDDIMCVKKILDKVGINYYLAHKALCSEKLDQWLCEKL | 56.2 °C | – | – | 2.44 |
| MMSFVSLLLVGILFHATQAEQLTKCEVFRELKDLKGYGGVSLPEWVCTTFHTSGYDTQAIVQNNDSTEYGLFQINNKIWCKDDQNPHSSNICNISCDKFLDDDLTDDIMCVKKILDKVGINYWLAAKALCSEKLDQWLCEKL | 52.1 °C and 56.2 °C | -4.1 | 60.5 | 0.79 |
| MMSFVSLLLVGILFHATQAEQLTKCEVFRELKDLKGYGGVSLPEWVCTTFHTSGYDTQAIVQNNDSTEYGLFQINNKIWCKDDQNPHSSNICNISCDKFLDDDLTDDIMCVKKILDKVGINYWLAYKALCSEKLDQWLCEKL | 55.2 °C and 56.2 °C | -1 | 62.9 | 0.19 |
| MMSFVSLLLVGILFHATQAEQLTKCEVFRELKDLKGYGGVSLPEWVCTTFHTSGYDTQAIVQNNDSTEYGLFQINNKIWCKDDQNPHSSNICNISCDKFLDDDLTDDIMCVKKILDKVGINYWLAHKAECSEKLDQWLCEKL | 55.1 °C and 56.2 °C | -1.1 | 58.6 | 0.19 |
| MMSFVSLLLVGILFHATQAEQLTKCEVFRELKDLKGYGGVSLPEWVCTTFHTSGYDTQAIVQNNDSTEYGLFQINNKIWCKDDQNPHSSNICNISCDKFLDDDLTDDIMCVKKILDKVGINYWLAHKARCSEKLDQWLCEKL | 58.1 °C and 56.2 °C | 1.9 | 76.5 | -0.43 |
| MMSFVSLLLVGILFHATQAEQLTKCEVFRELKDLKGYGGVSLPEWVCTTFHTSGYDTQAIVQNNDSTEYGLFQINNKIWCKDDQNPHSSNICNISCDKFLDDDLTDDIMCVKKILDKVGINYWLAHKALCSEELDQWLCEKL | 53 °C | -3.2 | 62.9 | – |
| MMSFVSLLLVGILFHATQAEQLTKCEVFRELKDLKGYGGVSLPEWVCTTFHTSGYDTQAIVQNNDSTEYGLFQINNKIWCKDDQNPHSSNICNISCDKFLDDDLTDDIMCVKKILDKVGINYWLAHKALCSEQLDQWLCEKL | 53.5 °C and 56.2 °C | -2.7 | 69.5 | 0.6 |
| MMSFVSLLLVGILFHATQAEQLTKCEVFRELKDLKGYGGVSLPEWVCTTFHTSGYDTQAIVQNNDSTEYGLFQINNKIWCKDDQNPHSSNICNISCDKFLDDDLTDDIMCVKKILDKVGINYWLAHKALCSEKLDAWLCEKL | 52.1 °C and 56.2 °C | -4.1 | 73.4 | 0.96 |
| MMSFVSLLLVGILFHATQAEQLTKCEVFRELKDLKGYGGVSLPEWVCTTFHTSGYDTQAIVQNNDSTEYGLFQINNKIWCKDDQNPHSSNICNISCDKFLDDDLTDDIMCVKKILDKVGINYWLAHKALCSEKLDQHLCEKL | 52.9 °C and 56.2 °C | -3.3 | 56.2 | 0.6 |
| MMSFVSLLLVGILFHATQAEQLTKCEVFRELKDLKGYGGVSLPEWVCTTFATSGYDTQAIVQNNDSTEYGLFQINNKIWCKDDQNPHSSNICNISCDKFLDDDLTDDIMCVKKILDKVGINYWLAHKALCSEKLDQWLCEKL | – | -11.6 | 50.4 | 2.13 |
| MMSFVSLLLVGILFHATQAEQLTKCEVFRELKDLKGYGGVSLPEWVCTTFHTSGYDTQAIGQNNDSTEYGLFQINNKIWCKDDQNPHSSNICNISCDKFLDDDLTDDIMCVKKILDKVGINYWLAHKALCSEKLDQWLCEKL | – | -5.2 | 68.6 | 1.15 |
| MMSFVSLLLVGILFHATQAEQLTKCEVFRELKDLKGYGGVSLPEWVCTTFHTSGYDTQAIVQNNDSTEYGLFQINNKIWCKDDQNPHSSNICNISCDKFLDDDLTDDIMCVKKILDKVGINAWLAHKALCSEKLDQWLCEKL | – | -10.7 | 64.3 | 2.39 |
